According to article PMC2814163:
Read-outs that look alike come from different tables or passages of the source.

Assays:
[1] = molecular target: plasminogen (Homo sapiens) (UniProt P00747); conditions: cited from earlier work
[2] = molecular target: Dom1-3His (extracytoplasmic domains 1-3 of the bovine CI-MPR, residues 1-432, C-terminal His6) (bovine) (UniProt P08169); assay: SPR
[3] = molecular target: Dom1-2His (domains 1-2 of the bovine CI-MPR, residues 1-281, C-terminal His6) (bovine) (UniProt P08169); assay: SPR
Sequence of Dom1-2His (domains 1-2 of the bovine CI-MPR, residues 1-281, C-terminal His6) (bovine) (P08169 45-325): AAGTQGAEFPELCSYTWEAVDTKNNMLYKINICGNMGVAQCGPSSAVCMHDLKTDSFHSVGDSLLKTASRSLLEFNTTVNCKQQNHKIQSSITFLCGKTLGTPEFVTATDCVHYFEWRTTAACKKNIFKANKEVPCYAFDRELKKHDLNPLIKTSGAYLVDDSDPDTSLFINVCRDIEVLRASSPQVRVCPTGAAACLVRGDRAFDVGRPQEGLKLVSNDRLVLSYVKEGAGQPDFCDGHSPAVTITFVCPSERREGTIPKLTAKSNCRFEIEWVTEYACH

[4] = molecular target: Dom1-3His (extracytoplasmic domains 1-3 of the bovine CI-MPR, residues 1-432, C-terminal His6) (bovine) (UniProt P08169); assay: SPR; remark: listed apart in the source
Dom1-3HisK125A (bovine) = Dom1-3HisK125A (bovine) (UniProt P08169); assay: SPR
Sequence of Dom1-3HisK125A (bovine) (P08169 45-476 K169A): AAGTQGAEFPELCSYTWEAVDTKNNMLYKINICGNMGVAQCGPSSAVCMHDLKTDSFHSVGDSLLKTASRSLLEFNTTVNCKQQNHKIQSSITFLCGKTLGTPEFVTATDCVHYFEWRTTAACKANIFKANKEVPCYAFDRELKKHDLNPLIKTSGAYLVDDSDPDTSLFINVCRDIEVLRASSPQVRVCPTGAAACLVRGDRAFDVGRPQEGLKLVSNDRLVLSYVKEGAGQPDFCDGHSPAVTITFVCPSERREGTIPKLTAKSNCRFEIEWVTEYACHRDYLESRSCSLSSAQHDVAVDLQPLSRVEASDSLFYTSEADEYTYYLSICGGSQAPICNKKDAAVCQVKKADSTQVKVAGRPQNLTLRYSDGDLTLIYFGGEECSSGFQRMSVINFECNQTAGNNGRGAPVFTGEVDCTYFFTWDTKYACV

Dom1-3HisK132A (bovine) = Dom1-3HisK132A (bovine) (UniProt P08169); assay: SPR
Sequence of Dom1-3HisK132A (bovine) (P08169 45-476 K176A): as the sequence (P08169 45-476 K169A) above, with A125K, K132A counted along it

Dom1-3HisK215A (bovine) = Dom1-3HisK215A (bovine) (UniProt P08169); assay: SPR
Sequence of Dom1-3HisK215A (bovine) (P08169 45-476 K259A): as the sequence (P08169 45-476 K169A) above, with A125K, K215A counted along it

Dom1-3HisK23A (bovine) = Dom1-3HisK23A (bovine) (UniProt P08169); assay: SPR
Sequence of Dom1-3HisK23A (bovine) (P08169 45-476 K67A): as the sequence (P08169 45-476 K169A) above, with K23A, A125K counted along it

Dom1-3HisK53A (bovine) = Dom1-3HisK53A (bovine) (UniProt P08169); assay: SPR
Sequence of Dom1-3HisK53A (bovine) (P08169 45-476 K97A): as the sequence (P08169 45-476 K169A) above, with K53A, A125K counted along it

Dom1-3HisK82A (bovine) = Dom1-3HisK82A (bovine) (UniProt P08169); assay: SPR
Sequence of Dom1-3HisK82A (bovine) (P08169 45-476 K126A): as the sequence (P08169 45-476 K169A) above, with K82A, A125K counted along it

Dom1-3HisK98A (bovine) = Dom1-3HisK98A (bovine) (UniProt P08169); assay: SPR
Sequence of Dom1-3HisK98A (bovine) (P08169 45-476 K142A): as the sequence (P08169 45-476 K169A) above, with K98A, A125K counted along it

Dom1-3HisR118A (bovine) = Dom1-3HisR118A (bovine) (UniProt P08169); assay: SPR
Sequence of Dom1-3HisR118A (bovine) (P08169 45-476 R162A): as the sequence (P08169 45-476 K169A) above, with R118A, A125K counted along it

[5] = molecular target: Dom1His (domain 1 of the bovine CI-MPR, residues 1-123, C-terminal His6) (bovine) (UniProt P08169); assay: SPR
Sequence of Dom1His (domain 1 of the bovine CI-MPR, residues 1-123, C-terminal His6) (bovine) (P08169 45-167): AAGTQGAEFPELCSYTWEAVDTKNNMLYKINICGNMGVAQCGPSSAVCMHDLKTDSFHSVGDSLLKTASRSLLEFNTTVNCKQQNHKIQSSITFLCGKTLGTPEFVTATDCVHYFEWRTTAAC

[6] = molecular target: soluble form of the cation-independent mannose 6-phosphate receptor isolated from fetal bovine serum (bovine) (UniProt P08169); assay: SPR
Sequence of soluble form of the cation-independent mannose 6-phosphate receptor isolated from fetal bovine serum (bovine) (P08169 45-2313): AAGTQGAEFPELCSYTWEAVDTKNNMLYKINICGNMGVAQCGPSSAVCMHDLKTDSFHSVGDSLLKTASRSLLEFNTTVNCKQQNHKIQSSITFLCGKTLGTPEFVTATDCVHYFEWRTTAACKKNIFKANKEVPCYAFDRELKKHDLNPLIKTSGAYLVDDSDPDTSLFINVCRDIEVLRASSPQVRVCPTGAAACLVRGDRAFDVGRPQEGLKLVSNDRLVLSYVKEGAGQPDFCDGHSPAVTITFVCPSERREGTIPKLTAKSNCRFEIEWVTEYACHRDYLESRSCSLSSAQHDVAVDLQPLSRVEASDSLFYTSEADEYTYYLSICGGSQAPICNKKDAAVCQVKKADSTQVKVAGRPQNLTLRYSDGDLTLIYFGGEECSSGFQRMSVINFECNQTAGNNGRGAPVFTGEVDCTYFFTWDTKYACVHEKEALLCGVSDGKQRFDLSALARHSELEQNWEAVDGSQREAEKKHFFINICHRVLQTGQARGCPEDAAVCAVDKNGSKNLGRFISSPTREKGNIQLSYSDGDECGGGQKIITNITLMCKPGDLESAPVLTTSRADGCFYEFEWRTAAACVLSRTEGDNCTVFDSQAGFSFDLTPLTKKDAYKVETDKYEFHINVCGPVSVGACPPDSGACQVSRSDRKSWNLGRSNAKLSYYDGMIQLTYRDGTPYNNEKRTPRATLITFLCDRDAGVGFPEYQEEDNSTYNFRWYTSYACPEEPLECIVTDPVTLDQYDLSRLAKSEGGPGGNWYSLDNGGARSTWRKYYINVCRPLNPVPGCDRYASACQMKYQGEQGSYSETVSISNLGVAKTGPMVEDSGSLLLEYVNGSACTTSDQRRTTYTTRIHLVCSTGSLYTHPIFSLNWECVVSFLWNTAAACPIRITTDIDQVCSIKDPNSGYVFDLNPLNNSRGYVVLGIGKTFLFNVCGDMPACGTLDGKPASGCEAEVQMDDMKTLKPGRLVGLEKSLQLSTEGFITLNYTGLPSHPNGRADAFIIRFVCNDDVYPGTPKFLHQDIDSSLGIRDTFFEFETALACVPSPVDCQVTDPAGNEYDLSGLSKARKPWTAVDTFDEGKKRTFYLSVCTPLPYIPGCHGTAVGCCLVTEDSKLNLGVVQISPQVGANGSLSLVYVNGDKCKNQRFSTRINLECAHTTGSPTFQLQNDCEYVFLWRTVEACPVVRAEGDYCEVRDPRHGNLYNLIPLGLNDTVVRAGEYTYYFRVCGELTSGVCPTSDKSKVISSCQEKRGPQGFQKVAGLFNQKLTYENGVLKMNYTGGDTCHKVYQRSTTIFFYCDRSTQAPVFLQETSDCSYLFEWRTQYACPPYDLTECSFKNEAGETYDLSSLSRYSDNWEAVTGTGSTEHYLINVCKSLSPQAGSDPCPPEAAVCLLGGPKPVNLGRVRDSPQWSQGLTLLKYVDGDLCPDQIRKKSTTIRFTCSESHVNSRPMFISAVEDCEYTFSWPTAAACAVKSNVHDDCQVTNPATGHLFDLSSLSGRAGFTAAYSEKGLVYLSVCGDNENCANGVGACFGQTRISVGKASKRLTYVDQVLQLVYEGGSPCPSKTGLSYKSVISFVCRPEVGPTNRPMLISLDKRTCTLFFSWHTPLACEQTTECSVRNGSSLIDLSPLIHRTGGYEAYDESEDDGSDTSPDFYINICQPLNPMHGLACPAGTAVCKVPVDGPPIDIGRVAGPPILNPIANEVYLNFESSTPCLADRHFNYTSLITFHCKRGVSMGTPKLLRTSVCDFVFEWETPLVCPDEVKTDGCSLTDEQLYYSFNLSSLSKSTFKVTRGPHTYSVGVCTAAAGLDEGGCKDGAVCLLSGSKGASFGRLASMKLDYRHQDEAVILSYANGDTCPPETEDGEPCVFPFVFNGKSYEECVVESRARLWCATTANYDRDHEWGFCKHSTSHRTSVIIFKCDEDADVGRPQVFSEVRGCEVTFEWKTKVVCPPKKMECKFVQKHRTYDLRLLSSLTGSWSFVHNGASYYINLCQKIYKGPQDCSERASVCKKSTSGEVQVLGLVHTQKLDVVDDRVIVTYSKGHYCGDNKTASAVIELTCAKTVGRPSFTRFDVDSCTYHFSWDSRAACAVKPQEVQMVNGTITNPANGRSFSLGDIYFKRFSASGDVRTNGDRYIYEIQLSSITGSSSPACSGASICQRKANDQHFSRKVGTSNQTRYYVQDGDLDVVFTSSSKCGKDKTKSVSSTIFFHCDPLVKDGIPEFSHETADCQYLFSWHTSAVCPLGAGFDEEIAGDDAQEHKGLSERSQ

Sequence of Dom1-3His (extracytoplasmic domains 1-3 of the bovine CI-MPR, residues 1-432, C-terminal His6) (bovine) (P08169 45-476): as the sequence (P08169 45-476 K169A) above, with A125K counted along it
Sequence of plasminogen (Homo sapiens) (P00747 20-810): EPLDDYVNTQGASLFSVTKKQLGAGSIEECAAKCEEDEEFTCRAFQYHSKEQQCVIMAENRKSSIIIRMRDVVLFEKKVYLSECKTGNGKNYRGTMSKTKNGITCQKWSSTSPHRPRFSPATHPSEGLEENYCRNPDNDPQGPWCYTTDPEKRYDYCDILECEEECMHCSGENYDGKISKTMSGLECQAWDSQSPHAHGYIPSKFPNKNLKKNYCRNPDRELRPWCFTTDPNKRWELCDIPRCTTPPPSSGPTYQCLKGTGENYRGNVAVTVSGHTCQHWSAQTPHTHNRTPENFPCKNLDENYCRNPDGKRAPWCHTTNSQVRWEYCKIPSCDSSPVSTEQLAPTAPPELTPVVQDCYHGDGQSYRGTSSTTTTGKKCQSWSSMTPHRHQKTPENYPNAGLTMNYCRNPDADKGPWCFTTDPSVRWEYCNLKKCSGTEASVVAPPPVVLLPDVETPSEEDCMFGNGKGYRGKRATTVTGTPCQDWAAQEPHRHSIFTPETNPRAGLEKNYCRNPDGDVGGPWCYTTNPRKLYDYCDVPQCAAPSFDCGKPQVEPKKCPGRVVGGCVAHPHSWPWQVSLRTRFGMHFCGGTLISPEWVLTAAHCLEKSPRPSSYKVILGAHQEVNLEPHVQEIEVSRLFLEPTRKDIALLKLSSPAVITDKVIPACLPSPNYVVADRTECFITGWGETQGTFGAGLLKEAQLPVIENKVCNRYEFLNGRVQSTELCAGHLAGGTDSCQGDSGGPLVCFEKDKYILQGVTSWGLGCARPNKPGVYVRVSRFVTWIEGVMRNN

Kd [2]	Kd2 (two-site model) [3]	Kd [4]	Kd (Dom1-3HisK125A (bovine))	Kd (Dom1-3HisK132A (bovine))	Kd (Dom1-3HisK215A (bovine))	Kd (Dom1-3HisK23A (bovine))	Kd (Dom1-3HisK53A (bovine))	Kd (Dom1-3HisK82A (bovine))	Kd (Dom1-3HisK98A (bovine))	Kd (Dom1-3HisR118A (bovine))	Kd1 (two-site model) [5]	Kd2 (two-site model) [5]	Kd2 (two-site model) [6]	Substance	Kd [1]
														CI-MPR (from UniProt P11717)	0.27 µM
0.131 µM	170 nM	0.271 µM	> 2 µM	0.064 µM	0.01 µM	0.033 µM	> 2 µM	0.069 µM	0.024 µM	0.021 µM	> 2 µM	> 2 µM	290 nM	bovine Glu-plasminogen (natural protein)	
		0.17 µM												human angiostatin K1-4 (domain or fragment)	
